Laboratory results as given in publication PMC6007841 (Journal of medicinal chemistry, 2018).
Bridge positions count the residues as written; N and C are the ends. Ends that are not written are not given here.

Assays:
Test in all cases: cell-based or functional assay
[1] = target: mouse melanocortin 1 receptor (mouse, UniProt Q01727 1-315)
[2] = target: mouse melanocortin 3 receptor (mouse, UniProt P33033 1-323)
[3] = target: mouse melanocortin 5 receptor (mouse, UniProt P41149 1-325)
[4] = target: human melanocortin 1 receptor (human, UniProt Q01726 1-317)
Sequence of human melanocortin 1 receptor (Q01726 whole entry): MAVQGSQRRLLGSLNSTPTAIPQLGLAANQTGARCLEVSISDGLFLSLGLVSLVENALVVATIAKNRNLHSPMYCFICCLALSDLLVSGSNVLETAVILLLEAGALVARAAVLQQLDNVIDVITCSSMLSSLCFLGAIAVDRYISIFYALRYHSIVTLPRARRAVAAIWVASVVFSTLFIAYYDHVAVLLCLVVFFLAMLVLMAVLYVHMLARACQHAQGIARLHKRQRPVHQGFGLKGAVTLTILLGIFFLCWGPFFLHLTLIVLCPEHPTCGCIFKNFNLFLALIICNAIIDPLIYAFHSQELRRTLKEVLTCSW

[5] = target: human melanocortin 3 receptor (human, UniProt P41968 1-323)
Sequence of human melanocortin 3 receptor (P41968 whole entry): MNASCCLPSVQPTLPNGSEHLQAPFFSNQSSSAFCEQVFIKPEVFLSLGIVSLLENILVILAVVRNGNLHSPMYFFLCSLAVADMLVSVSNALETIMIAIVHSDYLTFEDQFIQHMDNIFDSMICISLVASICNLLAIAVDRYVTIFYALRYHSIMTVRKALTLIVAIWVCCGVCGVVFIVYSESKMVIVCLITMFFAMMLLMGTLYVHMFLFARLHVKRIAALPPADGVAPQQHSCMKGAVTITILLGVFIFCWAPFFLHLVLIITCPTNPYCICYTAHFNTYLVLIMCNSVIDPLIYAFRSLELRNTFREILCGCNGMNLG

[6] = target: human melanocortin 4 receptor (human, UniProt P32245 1-332)
Sequence of human melanocortin 4 receptor (P32245 whole entry): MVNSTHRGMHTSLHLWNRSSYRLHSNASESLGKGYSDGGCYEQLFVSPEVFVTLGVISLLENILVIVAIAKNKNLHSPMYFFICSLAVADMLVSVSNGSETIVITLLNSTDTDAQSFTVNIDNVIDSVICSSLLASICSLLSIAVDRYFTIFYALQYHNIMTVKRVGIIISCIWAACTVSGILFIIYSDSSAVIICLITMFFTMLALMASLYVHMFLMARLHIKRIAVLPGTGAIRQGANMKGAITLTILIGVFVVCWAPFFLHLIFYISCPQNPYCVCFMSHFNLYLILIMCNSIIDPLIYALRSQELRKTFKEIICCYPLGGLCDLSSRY

Sequence of mouse melanocortin 1 receptor (Q01727 whole entry): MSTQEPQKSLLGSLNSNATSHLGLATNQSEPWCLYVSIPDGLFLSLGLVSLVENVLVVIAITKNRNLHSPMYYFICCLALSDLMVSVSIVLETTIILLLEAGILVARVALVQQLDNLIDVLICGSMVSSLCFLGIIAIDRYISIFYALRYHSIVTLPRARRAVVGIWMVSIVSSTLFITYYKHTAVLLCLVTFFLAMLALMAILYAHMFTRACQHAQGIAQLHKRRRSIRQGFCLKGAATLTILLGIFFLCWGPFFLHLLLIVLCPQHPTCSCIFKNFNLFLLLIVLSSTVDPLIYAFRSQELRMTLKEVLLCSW
Sequence of mouse melanocortin 5 receptor (P41149 whole entry): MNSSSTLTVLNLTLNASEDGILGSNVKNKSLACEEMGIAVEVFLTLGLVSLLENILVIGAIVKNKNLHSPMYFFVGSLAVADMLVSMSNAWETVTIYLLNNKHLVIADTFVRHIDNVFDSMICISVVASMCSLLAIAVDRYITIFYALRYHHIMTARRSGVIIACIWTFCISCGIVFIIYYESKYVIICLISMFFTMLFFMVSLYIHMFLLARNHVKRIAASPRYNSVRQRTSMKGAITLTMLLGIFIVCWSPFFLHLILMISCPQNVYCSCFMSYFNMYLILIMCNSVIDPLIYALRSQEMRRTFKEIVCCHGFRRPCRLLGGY
Sequence of mouse melanocortin 3 receptor (P33033 whole entry): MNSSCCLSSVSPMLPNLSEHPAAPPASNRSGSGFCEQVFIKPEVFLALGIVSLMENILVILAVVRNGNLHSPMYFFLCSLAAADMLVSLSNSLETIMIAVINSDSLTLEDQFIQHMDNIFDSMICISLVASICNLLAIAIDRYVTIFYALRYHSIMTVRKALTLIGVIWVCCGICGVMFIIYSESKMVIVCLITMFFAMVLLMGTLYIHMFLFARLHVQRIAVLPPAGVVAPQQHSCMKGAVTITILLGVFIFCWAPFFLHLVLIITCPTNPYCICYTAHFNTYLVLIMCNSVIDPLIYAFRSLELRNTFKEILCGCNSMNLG

Row | Binder | cAMP agonist EC50 (AlphaScreen cAMP assay, HEK293 cells expressing the receptor) [1] | cAMP agonist EC50 (AlphaScreen cAMP assay, HEK293 cells expressing the receptor) [2] | cAMP agonist EC50 (AlphaScreen cAMP assay, HEK293 cells expressing the receptor) [3] | cAMP agonist EC50 (AlphaScreen cAMP assay, HEK293 cells expressing the receptor) [4] | cAMP agonist EC50 (AlphaScreen cAMP assay, HEK293 cells expressing the receptor) [5] | cAMP agonist EC50 (AlphaScreen cAMP assay, HEK293 cells expressing the receptor) [6]
1 | DQYKCLQHGGFCLRSSCPSNTKLQGTCKPDKPNCCKS (peptide, UniProt P56386 33-69, looked up, disulfide 12-27, 17-35, 5-34) [mouse β-defensin 1, oxidized form] | 11 µM | 14 µM | 5.2 µM | 1.4 µM | 22 µM | 3.8 µM
2 | GIINTLQKYYCRVRGGRCAVLSCLPKEEQIGKCSTRGRKCCRRKK (peptide, UniProt P81534 23-67, looked up, oxidized, folded form (disulfide bonds formed)) [human β-defensin 3, oxidized, folded form] | 2.2 µM |  | 4.7 µM | 0.4 µM |  | 2.6 µM
3 | DHYNCVSSGGQCLYSACPIFTKIQGTCYRGKAKCCK (peptide, UniProt P60022 33-68, looked up, oxidized form (disulfide bonds formed)) [human β-defensin 1, oxidized form] |  |  |  | 7.4 µM |  | 
